Measurements: patent US20220135701A1 (Genentech, published 2022)

T1: human MerTK (human, UniProt Q12866 26-499)
T1 construct: also called HuMER
T1 sequence: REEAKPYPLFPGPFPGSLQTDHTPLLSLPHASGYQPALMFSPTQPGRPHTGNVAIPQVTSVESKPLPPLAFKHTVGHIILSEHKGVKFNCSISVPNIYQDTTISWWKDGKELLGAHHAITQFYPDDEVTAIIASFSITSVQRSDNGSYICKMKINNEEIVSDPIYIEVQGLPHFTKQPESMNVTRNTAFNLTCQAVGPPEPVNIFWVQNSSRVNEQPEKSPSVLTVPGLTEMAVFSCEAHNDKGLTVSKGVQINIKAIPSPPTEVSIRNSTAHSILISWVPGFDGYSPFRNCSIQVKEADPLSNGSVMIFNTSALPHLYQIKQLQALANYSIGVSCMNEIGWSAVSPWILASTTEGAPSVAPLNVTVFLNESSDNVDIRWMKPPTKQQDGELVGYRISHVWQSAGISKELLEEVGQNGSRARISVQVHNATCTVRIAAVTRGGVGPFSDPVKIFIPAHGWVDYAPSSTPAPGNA

T2: cynomolgus monkey MerTK (cynomolgus monkey, UniProt A0A2K5V1H9 32-505)
T2 construct: Soluble analyte in SPR; also called Cyno MerTK
T2 sequence: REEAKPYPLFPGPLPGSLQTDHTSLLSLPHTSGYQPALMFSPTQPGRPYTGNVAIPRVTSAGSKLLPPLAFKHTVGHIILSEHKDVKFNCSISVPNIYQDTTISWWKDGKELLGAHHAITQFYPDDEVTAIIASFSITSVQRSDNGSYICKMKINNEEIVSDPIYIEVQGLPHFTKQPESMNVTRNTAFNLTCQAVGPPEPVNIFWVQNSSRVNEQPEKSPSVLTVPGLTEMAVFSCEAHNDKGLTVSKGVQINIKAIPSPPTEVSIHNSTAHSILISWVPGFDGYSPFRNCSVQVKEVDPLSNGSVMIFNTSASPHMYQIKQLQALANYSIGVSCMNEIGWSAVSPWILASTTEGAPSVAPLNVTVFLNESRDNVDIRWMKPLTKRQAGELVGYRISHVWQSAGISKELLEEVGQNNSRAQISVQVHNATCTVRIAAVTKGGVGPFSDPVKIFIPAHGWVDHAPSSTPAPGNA

T3: mouse MerTK (mouse, UniProt Q60805 23-496)
T3 construct: also called MuMER
T3 sequence (looked up): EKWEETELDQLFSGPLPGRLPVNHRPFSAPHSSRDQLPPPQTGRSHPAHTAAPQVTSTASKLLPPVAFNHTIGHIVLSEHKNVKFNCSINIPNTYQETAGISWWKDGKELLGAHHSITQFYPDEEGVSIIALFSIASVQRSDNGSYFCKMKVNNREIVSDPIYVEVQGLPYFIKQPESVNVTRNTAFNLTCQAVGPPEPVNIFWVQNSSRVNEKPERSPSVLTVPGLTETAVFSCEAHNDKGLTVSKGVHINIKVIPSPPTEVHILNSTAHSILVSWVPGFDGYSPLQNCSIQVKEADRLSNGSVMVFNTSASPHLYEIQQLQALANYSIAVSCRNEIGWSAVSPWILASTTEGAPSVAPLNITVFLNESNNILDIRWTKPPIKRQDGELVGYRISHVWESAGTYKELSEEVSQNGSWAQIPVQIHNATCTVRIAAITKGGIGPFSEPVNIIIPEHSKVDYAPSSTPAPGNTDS

T4: MuMER.Ig1&2 (A70-P279) (mouse, UniProt Q60805 70-279)
T4 construct: range 70-279; also called mouse MerTK Ig-like 1&2 domains
T4 sequence (looked up): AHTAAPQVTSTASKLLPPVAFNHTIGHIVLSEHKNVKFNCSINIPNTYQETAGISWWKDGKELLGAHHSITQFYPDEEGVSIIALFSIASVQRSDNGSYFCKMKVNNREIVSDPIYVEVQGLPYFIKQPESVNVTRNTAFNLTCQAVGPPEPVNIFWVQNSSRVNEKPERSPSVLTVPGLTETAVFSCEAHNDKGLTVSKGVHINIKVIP

T5: MuMER.Ig1 (A70-G190) (mouse, UniProt Q60805 70-190)
T5 construct: range 70-190; also called mouse MerTK Ig-like 1 domain
T5 sequence (looked up): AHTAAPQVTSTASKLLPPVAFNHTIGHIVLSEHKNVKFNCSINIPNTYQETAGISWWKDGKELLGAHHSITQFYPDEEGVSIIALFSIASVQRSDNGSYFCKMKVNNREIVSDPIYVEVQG

T6: HuMER (R26-A499) (human, UniProt Q12866 26-499)
T6 construct: Extracellular domain with both Ig-like and both fibronectin-like domains; also called human MerTK extracellular domain
T6 sequence: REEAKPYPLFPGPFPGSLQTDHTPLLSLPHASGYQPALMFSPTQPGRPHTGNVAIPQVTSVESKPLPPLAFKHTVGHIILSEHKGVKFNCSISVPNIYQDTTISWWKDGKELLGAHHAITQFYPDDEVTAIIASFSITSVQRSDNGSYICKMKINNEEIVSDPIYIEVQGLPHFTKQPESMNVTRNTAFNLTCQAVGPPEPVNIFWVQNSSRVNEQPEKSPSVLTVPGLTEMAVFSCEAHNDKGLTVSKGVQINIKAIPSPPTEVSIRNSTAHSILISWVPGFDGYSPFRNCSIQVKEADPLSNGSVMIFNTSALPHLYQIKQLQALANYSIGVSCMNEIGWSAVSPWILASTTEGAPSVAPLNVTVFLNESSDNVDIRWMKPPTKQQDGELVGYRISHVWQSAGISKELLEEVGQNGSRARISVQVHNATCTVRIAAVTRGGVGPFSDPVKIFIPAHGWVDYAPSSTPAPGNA

T7: HuMER.Ig1&2 (G76-P284) (human, UniProt Q12866 76-284)
T7 construct: also called human MerTK Ig-like 1&2 domains
T7 sequence: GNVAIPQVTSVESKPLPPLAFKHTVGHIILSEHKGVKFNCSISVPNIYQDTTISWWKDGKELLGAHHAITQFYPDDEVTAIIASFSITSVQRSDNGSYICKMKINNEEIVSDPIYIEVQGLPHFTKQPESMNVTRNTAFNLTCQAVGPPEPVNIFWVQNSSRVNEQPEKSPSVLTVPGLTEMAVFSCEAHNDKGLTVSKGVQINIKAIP

T8: HuMER.Ig1 (G76-G195) (human, UniProt Q12866 76-195)
T8 construct: also called human MerTK Ig-like 1 domain
T8 sequence: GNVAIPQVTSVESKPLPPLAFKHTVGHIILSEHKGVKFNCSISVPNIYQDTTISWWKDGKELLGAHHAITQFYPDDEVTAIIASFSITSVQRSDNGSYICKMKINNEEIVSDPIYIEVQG

T9: MuMER (E23-S496) (mouse, UniProt Q60805 23-496)
T9 construct: range 23-496; also called mouse MerTK extracellular domain
T9 sequence (looked up): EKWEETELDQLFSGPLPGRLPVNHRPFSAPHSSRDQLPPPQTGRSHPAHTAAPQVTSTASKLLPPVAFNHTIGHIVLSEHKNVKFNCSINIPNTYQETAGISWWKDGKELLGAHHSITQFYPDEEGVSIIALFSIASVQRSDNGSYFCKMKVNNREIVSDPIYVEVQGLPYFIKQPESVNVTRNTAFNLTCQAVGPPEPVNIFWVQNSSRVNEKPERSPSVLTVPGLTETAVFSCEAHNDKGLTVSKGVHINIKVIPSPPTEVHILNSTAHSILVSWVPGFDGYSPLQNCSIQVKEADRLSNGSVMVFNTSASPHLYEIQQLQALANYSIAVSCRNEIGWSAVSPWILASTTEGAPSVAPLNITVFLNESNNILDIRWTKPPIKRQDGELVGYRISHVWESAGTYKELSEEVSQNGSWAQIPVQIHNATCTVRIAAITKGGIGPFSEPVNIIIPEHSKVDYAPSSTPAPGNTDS


What was measured:
Test in all cases: SPR BIAcore T200, Ab captured, 25C
[1] = target: T1, human MerTK
Experimental: (§1) All binding affinity determinations were obtained using Surface Plasmon Resonance (SPR) measurements from a BIAcore™-T200 instrument. Briefly, each rabbit or humanized antibody was captured to achieve approximately 100 RU (Response Units). Then, 3-fold serial dilutions of MerTK from various species (0.4 nM to 100 nM) diluted in HBS-EP buffer (0.01M HEPES pH 7.4, 0.15M NaCl, 3 mM EDTA and 0.05% v/v surfactant P20) was injected into the BIAcore™-T200 instrument at 25° C. or 37° C. with a flow rate of 30 μl/min. Association rates (kₒₙ) and dissociation rates (koff) were calculated using a simple one-to-one Langmuir binding model (BIAcore T200 evaluation software version 2.0). The equilibrium dissociation constant (KD) was calculated as the ratio koff/kₒₙ.

[2] = target: T2, cynomolgus monkey MerTK
Experimental: as §1

[3] = target: T3, mouse MerTK
Experimental: as §1

[4] = target: T4, MuMER.Ig1&2 (A70-P279)
Experimental: (§2) Binding affinity determinations were obtained using Surface Plasmon Resonance (SRP) measurements from a BIAcore™-T200 instrument. Briefly, each rabbit antibody was captured to achieve approximately 100 RU (Response Units). Then, 3-fold serial dilutions of the various MerTK domains (0.4 nM to 100 nM) diluted in HBS-EP buffer (0.01M HEPES pH 7.4, 0.15M NaCl, 3 mM EDTA and 0.05% v/v surfactant P20) was injected into the BIAcore™-T200 instrument at 25° C. or 37° C. with a flow rate of 30 μl/min. Association rates (kₒₙ) and dissociation rates (koff) were calculated using a simple one-to-one Langmuir binding model (BIAcore T200 evaluation software version 2.0). The equilibrium dissociation constant (KD) was calculated as the ratio koff/kₒₙ.
(§3) Antibody epitope determination was assessed by BIAcore analysis for rabbit antibodies binding against both the human and mouse MerTK extracellular domain (HuMER R26-A499 and MuMER E23-S496), Ig1&2 domain, Ig1-only domain, and Ig2-only domain (TABLE 18). Human MerTK and its domains are shown in light gray, while mouse MerTK and its domains are shown in dark gray.

[5] = target: T5, MuMER.Ig1 (A70-G190)
Experimental: as §2, §3

[6] = target: T6, HuMER (R26-A499)
Experimental: as §2, §3

[7] = target: T7, HuMER.Ig1&2 (G76-P284)
Experimental: as §2, §3

[8] = target: T8, HuMER.Ig1 (G76-G195)
Experimental: as §2, §3

[9] = target: T9, MuMER (E23-S496)
Experimental: as §2, §3

Kd [1] [nM]	Kd [2] [nM]	Kd [3] [nM]	Kd [4] [nM]	Kd [5] [nM]	Kd [6] [nM]	Kd [7] [nM]	Kd [8] [nM]	Kd [9] [nM]	Binder
2.3	4.3	1.7	1.9	0.2	2.3	21	0.5	1.7	Rbt18G7 (antibody, V domains shown, Recombinant rabbit monoclonal antibody, Expi293, protein A purified) VH: QSLEESGGRLVTPGTPLTLTCTVSGIDLSSYALGWVRQAPGKGLEYIGIISSTGTTYYATWAKGRFTISKTSSTTVDLKITGPTTEDTATYFCARGAYAGYVAFGPYYFHIWGPGTLVTISL VL: DIVMTQTPASVEAAVGGTVTIKCQASQSISNFLAWYQQKPGQPPKVLIYAASHLASGVPSRFKGSGSGTQFTLTISDLECADAATYYCQSYFYSSTSIYNAFGGGTEVVVR
18	13.9	8.5	11	2.2	18	92	16.7	8.5	Rbt12H4 (antibody, V domains shown, Recombinant rabbit monoclonal antibody, Expi293, protein A purified) VH: QSVEESGGRLVTPGTPLTVTCTVSGFSLSVYGMGWVRQAPGKGLEYIGFINNVGNTYYASWAKGRFTISKTSTTVDLKITSPTTEDTATYFCAKGGGGDWGYFNIWGPGTLVTVSL VL: DVVMTQTPASVEAAVGGTVTIKCQASQSIGNALAWYQQKPGQRPKLLIYAASNLASGVPSRFAGSGSGTQFTLTISDLECADAATYYCQTYYAINRYGGAFGGGTEVVVK
31.3	14.3	4.1	3.4		31.3		39.8	4.1	Rbt11G11 (antibody, V domains shown, Recombinant rabbit monoclonal antibody, Expi293, protein A purified) VH: QELVESGGGLVQAGESLKLSCKASGIDFSSYGISWVRQAPGKGLEWIAYIYPGFGITNYAHSVKGRFTISSDNAQNTVFLQMPSLTASDTATYFCARDLDYTGGVVGYAYVTYYFTLWGPGTLVTVSS VL: DPVLTQTPSSVEAAVGGTVTIKCQASESISSRLAWYQQKPGQPPKLLIYSASTLASGVSSRFKGSGSGTEFTLTISDLECADAATYYCQTYYGGSTTGWYVFGGGTEVVVK
